Measurements published in patent US20120237518A1 (Kyowa Kirin, published 2012).
Substitutions are numbered along the chain they refer to.

B1: cAR47A6.4.2, human IgG1 chimeric antibody of anti-Trop-2 mouse monoclonal antibody AR47A6.4.2 (antibody, V domains shown)
VH: QIQLVQSGPELKKPGETVKISCKASGYTFTNYGMNWVKQAPGKGLKWMGWINTKTGEPTYAEEFKGRFAFSLETSASTAYLQINNLKKEDTATYFCGRGGYGSSYWYFDVWGAGTTVTVSS
VL: DIVMTQSHKFMSTSVGDRVSITCKASQDVSIAVAWYQQKPGQSPKVLIYSASYRYTGVPDRFTGSGSGTDFTFTISRVQAEDLAVYYCQQHYITPLTFGAGTKLELK
notes: Variable regions of AR47A6.4.2 with human IgG1 constant region (pKANTEX93), made in CHO/DG44 cells, fucose content 100%
B2: anti-Trop-2 human chimeric antibody KM4590 (antibody, human IgG1, V domains shown)
VH: QVQLQQSGPELVRPGTSVRISCKASGYTFTIYWLGWVKQRPGHGLEWIGNIFPGSAYINYNEKFKGKATLTADTSSSTAYMQLSSLTSEDSAVYFCAREGSNSGYWGQGTTLTVSS
VL: DIVMTQSPSSLSVSAGEKVTMTCKSSQSLLNSGNQQNYLAWYQQKPGQPPKLLIYGASTRESGVPDRFTGSGSGTDFTLTINSVQAEDLAVYYCQSDHIYPYTFGGGTKLEIK
notes: KM4097 variable regions joined to human IgG1 H chain constant region and human kappa L chain constant region (pKANTEX93); made in CHO/DG44 cells, fucose content 100%
B3: anti-Trop-2 human chimeric antibody KM4591 (antibody, human IgG1, V domains shown)
VH: B2 VH
VL: B2 VL
notes: Same polypeptides as KM4590 (human IgG1, kappa), made in FUT8 knockout CHO/DG44 cells, fucose content 0%
B4: cAR47A6.4.2-P, defucosylated human IgG1 chimeric antibody of AR47A6.4.2 (antibody, V domains shown)
VH: B1 VH
VL: B1 VL
modifications: No core fucose on the Fc N-glycan (made in FUT8 knockout CHO/DG44 cells); the letters do not carry this.
B5: KM4097 humanized antibody HV0LV0 (antibody, V domains shown)
VH: QVQLVQSGAEVKKPGASVKVSCKASGYTFTIYWLGWVRQAPGQGLEWMGNIFPGSAYINYNEKFKGRVTITADTSTSTAYMELSSLRSEDTAVYYCAREGSNSGYWGQGTLVTVSS
VL: DIVMTQSPDSLAVSLGERATINCKSSQSLLNSGNQQNYLAWYQQKPGQPPKLLIYGASTRESGVPDRFSGSGSGTDFTLTISSLQAEDVAVYYCQSDHIYPYTFGQGTKLEIK
notes: Expressed from pKANTEX93 (human constant regions) in FUT8 knockout CHO cells; no fucose attached
B6: KM4097 humanized antibody HV3aLV0 (antibody, V domains shown)
VH: B5 VH with A9P, R67K, Y95F
VL: B5 VL
notes: as for B5
B7: KM4097 humanized antibody HV4LV0 (antibody, V domains shown)
VH: B5 VH with A9P, R38K, M48I, Y95F
VL: B5 VL
notes: as for B5
B8: KM4097 humanized antibody HV5LV0 (antibody, V domains shown)
VH: B5 VH with R38K, M48I, R67K, V68A, Y95F
VL: B5 VL
notes: as for B5
B9: KM4097 humanized antibody HV10LV2 (antibody, V domains shown)
VH: B5 VH with A9P, K12V, V20I, R38K, M48I, R67K, V68A, I70L, Y95F, V112L
VL: B5 VL with A19V, L84V
notes: as for B5
B10: KM4097 humanized antibody HV10LV4 (antibody, V domains shown)
VH: B5 VH with A9P, K12V, V20I, R38K, M48I, R67K, V68A, I70L, Y95F, V112L
VL: B5 VL with L15A, A19V, I21M, L84V
notes: as for B5
B11: anti-Trop-2 mouse monoclonal antibody KM4097 (antibody, V domains shown)
VH: B2 VH
VL: B2 VL

Key:
[1] = molecular target: T1, Mutant B, Trop-2 extracellular region lacking domain I and domain II, fused to FLAG tag and Fc (human); experiment: Western blot, cAR47A6.4.2 as primary antibody, Mutant B in lane 3, non-reducing and reducing SDS-PAGE [b]
T1 construct: Expressed in HEK293F
Experimental: (§1) Each protein of Trop-2/FLAG/Fc, Mutant A, Mutant B, or Mutant C prepared in this Example 2 was electrophoresed under reducing condition (treatment of samples in the presence of 10 mmol/l DTT at 95° C. for 5 minutes) or non-reducing condition (treatment of samples in the absence of DTT at room temperature for 10 minutes) by an SDS-PAGE method. The proteins in the gel were transferred to polyvinylidene difluoride (PVDF) membrane at 200 mA for 1 hour using a semi-dry method.
(§2) After the blocking of the PVDF membrane was carried out using PBS containing 5% BSA at room temperature for 1 hour, the PVDF membrane was soaked in the primary antibody solution which was prepared with TBST [an aqueous solution which was prepared by diluting Tris buffered saline (10× concentration) (pH 7.4) manufactured by Nakarai Tesque Inc.) ten-fold and further adding 0.1% concentration of 0.05% polyoxyethylene (20) sorbitan monolaurate (manufactured by Wako Pure Chemical Industries, Ltd., equivalent to ICI Inc.'s trademark Tween 20)] comprising 0.1% BSA to react for 1 hour at room temperature or overnight at 4° C.
(§3) Using the imaging system LAS4000 mini (manufactured by Fujifilm), the luminescence images were obtained. […]

[2] = molecular target: T2, recombinant human Trop-2/Fc/His fusion protein (manufactured by R&D) (human, UniProt P09758 27-274, limits assumed); experiment: competition binding ELISA on immobilised Trop-2/Fc/His; cAR47A6.4.2 varied, competed antibody YY-01 fixed at 0.3 µg/ml [d]
T2 construct: Bought reagent; also called Trop-2/Fc/His chimeric protein; recombinant Trop-2
T2 sequence: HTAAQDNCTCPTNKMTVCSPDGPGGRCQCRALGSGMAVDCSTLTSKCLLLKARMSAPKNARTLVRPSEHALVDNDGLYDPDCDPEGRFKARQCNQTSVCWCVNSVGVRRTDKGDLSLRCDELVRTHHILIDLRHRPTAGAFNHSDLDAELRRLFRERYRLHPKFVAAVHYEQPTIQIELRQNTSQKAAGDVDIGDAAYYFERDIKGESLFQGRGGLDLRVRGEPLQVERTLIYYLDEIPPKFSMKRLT
Experimental: (§4) Into a 96-well ELISA plate (manufactured by Greiner), 2 μg/ml of a recombinant human Trop-2/Fc/His chimeric protein (manufactured by R&D) was dispensed at 50 μl/well, and allowed to stand at 4° C. overnight for immobilization. After washing the plate with PBS, BSA-PBS was added thereto at 100 μl/well and allowed to stand at room temperature for 1 hour for blocking the active groups.
(§5) After washing the plate with Tween-PBS, a peroxidase-labeled rabbit anti-human IgG antibody (manufactured by American Qualex) was added at 50 μl/well as the second antibody and allowed to stand at room temperature for 1 hour. After washing the plate with Tween-PBS, the ABTS [2,2-Azino-bis(3-Ethyl benzothiazol-6-Sulfonic Acid)ammonium)] substrate solution [1 mmol/l ABTS, 0.1 mol/l citric acid buffer (pH 4.2), 0.1% H₂O₂] was added at 50 μl/well for color development, and the chromogenic reaction was stopped by adding a 5% SDS (Sodium lauryl sulfate) solution at 50 μl/well. Thereafter, the value of the absorbance of OD415 nm was measured by a plate reader Emax (manufactured by Molecular Devices, LLC.).

[3] = molecular target: T3, Mutant A, Trop-2 extracellular region lacking only domain I, fused to FLAG tag and Fc (human); experiment: Western blot, cAR47A6.4.2 as primary antibody, Mutant A in lane 2, non-reducing and reducing SDS-PAGE [b]
T3 construct: Expressed in HEK293F
Experimental: as §1, §2, §3

[4] = molecular target: T4, Trop-2/FLAG/Fc, fusion protein of Trop-2 extracellular region, FLAG tag and Fc (human); experiment: Western blot, cAR47A6.4.2 as primary antibody, Trop-2/FLAG/Fc in lane 1, non-reducing and reducing SDS-PAGE [b]
T4 construct: Expressed in HEK293F; The encoding DNA carries a secretion signal
Experimental: as §1, §2, §3

[5] = molecular target: T2, recombinant human Trop-2/Fc/His fusion …; experiment: competition binding ELISA on immobilised Trop-2/Fc/His; cAR47A6.4.2 varied, competed antibody MOv16 fixed at 0.3 µg/ml [b]
Experimental: as §4, §5

[6] = molecular target: T4, Trop-2/FLAG/Fc, fusion protein of …; experiment: Western blot, KM4590 as primary antibody, Trop-2/FLAG/Fc in lane 1, non-reducing and reducing SDS-PAGE [a]
Experimental: as §1, §2, §3

[7] = molecular target: T2, recombinant human Trop-2/Fc/His fusion …; experiment: SPR (Biacore T100), Trop-2/Fc/His captured by Tetra-His antibody, antibody as analyte, Bivalent Analyte model, mean of duplicates
Experimental: (§6) All the operations described below were carried out using Biacore T100 (manufactured by GE Healthcare Bio-sciences). Tetra-His antibody (manufactured by Qiagen) was immobilized so as to be 12,000 RU (resonance unit) on the CM5 sensor chip (manufactured by GE Healthcare Bio-sciences) using Amine Coupling Kit (manufactured by GE Healthcare Bio-sciences). After recombinant Trop-2/Fc/His fusion proteins (manufactured by R&D) were allowed to be captured on the sensor chip, anti-Trop-2 antibodies which were diluted in five-fold steps, starting from a concentration of 5,000 ng/ml were flowed at 30 μL/min, followed by obtaining sensorgrams at each concentration.
(§7) Using the software for analysis accompanied with the equipment, the results were analyzed based on Bivalent Analyte model to obtain the binding rate constant and the dissociation rate constant for binding of each antibody to a recombinant human Trop-2/Fc/His fusion protein.
(1) Binding Activity of Anti-Trop-2 Human Chimeric Antibody to Recombinant Human Trop-2 using Biacore In the same manner described in Example 3, the affinity of KM4591 and cAR47A6.4.2-P to human Trop-2/Fc/His fusion proteins (manufactured by R&D) were measured. ka, kd, and KD (kd/ka) of each antibody are shown in Table 5 (the mean values of duplicate experiments).

[8] = molecular target: T2, recombinant human Trop-2/Fc/His fusion …; experiment: as above; remark: listed apart in the source
Experimental: as §6, §7
(§8) In the same manner described in Example 3(2), the affinity of KM4591 and six kinds of KM4097 humanized antibodies (HV0LV0, HV3aLV0, HV4LV0, HV5LV0, HV10LV2 and HV10LV4) obtained in Example 8 to human Trop-2/Fc/His fusion proteins (manufactured by R&D) were evaluated.

[9] = molecular target: T2, recombinant human Trop-2/Fc/His fusion …; experiment: SPR (Biacore T100) on captured Trop-2/Fc/His; summary sentence of Table 6
Experimental: as §6, §7, §8

[10] = molecular target: T2, recombinant human Trop-2/Fc/His fusion …; experiment: SPR (Biacore T100), Trop-2/Fc/His captured by Tetra-His antibody on CM5 chip, antibody as analyte, Bivalent Analyte model, mean of duplicates
Experimental: as §6, §7

T1 sequence (chain, as listed by the source mutant limits assumed): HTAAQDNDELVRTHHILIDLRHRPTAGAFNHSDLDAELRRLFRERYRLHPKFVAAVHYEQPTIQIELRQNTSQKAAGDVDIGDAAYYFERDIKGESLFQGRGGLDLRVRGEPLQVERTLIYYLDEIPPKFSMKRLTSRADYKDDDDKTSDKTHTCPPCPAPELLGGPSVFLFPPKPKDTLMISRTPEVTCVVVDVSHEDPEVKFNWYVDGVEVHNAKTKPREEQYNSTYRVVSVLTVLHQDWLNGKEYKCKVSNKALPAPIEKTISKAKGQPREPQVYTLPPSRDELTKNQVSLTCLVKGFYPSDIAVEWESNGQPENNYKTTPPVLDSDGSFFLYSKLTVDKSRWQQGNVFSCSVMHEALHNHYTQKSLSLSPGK
T3 sequence (chain, as listed by the source mutant limits assumed): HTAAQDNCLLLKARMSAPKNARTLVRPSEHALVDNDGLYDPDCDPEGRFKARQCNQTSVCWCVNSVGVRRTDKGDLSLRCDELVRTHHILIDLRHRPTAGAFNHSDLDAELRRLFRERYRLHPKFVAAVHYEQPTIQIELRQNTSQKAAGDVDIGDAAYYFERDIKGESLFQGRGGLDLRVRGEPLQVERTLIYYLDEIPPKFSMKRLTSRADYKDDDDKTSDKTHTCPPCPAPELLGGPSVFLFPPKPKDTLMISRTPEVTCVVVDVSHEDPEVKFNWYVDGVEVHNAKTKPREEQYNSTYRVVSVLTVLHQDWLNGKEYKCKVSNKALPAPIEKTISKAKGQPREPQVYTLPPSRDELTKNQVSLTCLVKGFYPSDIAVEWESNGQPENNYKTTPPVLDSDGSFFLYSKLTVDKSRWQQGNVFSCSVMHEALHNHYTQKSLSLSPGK

Binder	Kd [8]	koff [8]	kon [8]	Kd [9]	further results
B1	–	–	–	–	binding result [1]: binds; IC50 (read off the curve) [2]: ~3 µg/mL; binding result [3]: binds; binding result [4]: binds; IC50 (read off the curve) [5]: ~4 µg/mL
B2	–	–	–	–	binding result [6]: binds
B3	0.36 nM	0.000113 s⁻¹	323000 M⁻¹ s⁻¹	–	Kd [7]: 0.143 nM; koff [7]: 5.8e-05 s⁻¹; kon [7]: 416000 M⁻¹ s⁻¹
B4	–	–	–	–	Kd [7]: 1.01 nM; koff [7]: 0.000218 s⁻¹; kon [7]: 221000 M⁻¹ s⁻¹
B5	0.53 nM	0.00016 s⁻¹	330000 M⁻¹ s⁻¹	≤ 1 nM	–
B6	0.3 nM	0.00016 s⁻¹	506000 M⁻¹ s⁻¹	≤ 0.5 nM	–
B7	0.42 nM	0.000126 s⁻¹	335000 M⁻¹ s⁻¹	≤ 0.5 nM	–
B8	0.49 nM	0.00019 s⁻¹	383000 M⁻¹ s⁻¹	≤ 0.5 nM	–
B9	0.4 nM	0.000148 s⁻¹	375000 M⁻¹ s⁻¹	≤ 0.5 nM	–
B10	0.37 nM	0.000116 s⁻¹	342000 M⁻¹ s⁻¹	≤ 0.5 nM	–
B11	–	–	–	–	Kd [10]: 0.261 nM; koff [10]: 0.000101 s⁻¹; kon [10]: 389000 M⁻¹ s⁻¹
